Data reported in the supplement of paper PMC6757056.
± gives the standard deviation of the averaged measurements.

B1: library; a variant is named by its letters at N, in order (parent)
chain: GCUGUCACCGGUGUAUUACCCUAGUGGUCGACCGGUCUGAUGAGUCUNNNNNNAGACGAAACAGC

How the values were obtained:
hypoxanthine [1] = variants of: B1; assay: FACS-Seq fitted mean relative fluorescence mCherry/BFP without ligand (log10 relative fluorescence); ligand: hypoxanthine (xanthine aptamer); higher = higher reporter protein expression; details: HEK293T, ligand present: no
Outline: (§1)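 Genomic DNA from 6 mCherry/BFP sort bins was PCR-amplified, barcoded and sequenced on MiSeq. The sorted cells were enriched HEK293T libraries, lentivirally transduced with a ribozyme-switch mCherry reporter and an EF1α-BFP marker, incubated with or without ligand for 48 h. Fluorescence derives from a normal fit to the bin counts. The fit was on log10(mCherry/BFP), and means were scaled to five spiked-in control ribozymes.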

hypoxanthine [2] = variants of: B1; assay: normalized RNA/DNA level with ligand (relative to sTRSVctl = 100) (log10 (% of sTRSVctl)); ligand: hypoxanthine (xanthine aptamer); higher = less ribozyme self-cleavage, higher mRNA level; details: ligand concentration (+) RNA-Seq: 5 mM, HEK293T, reporter: mCherry (pCS4076), ligand present: yes
Outline: (§2)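 Ribozyme switch library plasmids linked to reporters were introduced into HEK293T cells at 4 µg per 6-well well, with ligand, if any, added 1 h before. Total RNA was extracted with EDTA 72 h later, reverse-transcribed, amplified, barcoded and sequenced. RNA level was computed from RNA over DNA reads relative to a spiked-in non-cleaving sequence or the top sequences, then scaled and log-transformed. The top set was 25 sequences, values were ×100 and log10, and the cutoff was ≥100 DNA reads.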

hypoxanthine [3] = variants of: B1; assay: normalized RNA/DNA level without ligand (relative to sTRSVctl = 100) (log10 (% of sTRSVctl)); ligand: hypoxanthine (xanthine aptamer); higher = less ribozyme self-cleavage, higher mRNA level; details: HEK293T, reporter: mCherry (pCS4076), ligand present: no
Outline: as §2

hypoxanthine [4] = variants of: B1; assay: FACS-Seq fitted mean relative fluorescence mCherry/BFP with ligand (log10 relative fluorescence); ligand: hypoxanthine (xanthine aptamer); ligand concentration (+) FACS-Seq: 5 mM; higher = higher reporter protein expression; details: HEK293T, ligand present: yes
Outline: as §1

Variant | FACS-Seq fitted mean (log10) (hypoxanthine [1]) | normalized RNA/DNA level with ligand (log10) (hypoxanthine [2]) | normalized RNA/DNA level without ligand (log10) (hypoxanthine [3]) | FACS-Seq fitted mean (log10) (hypoxanthine [4])
GCUGUCACCGGUGUAUUACCCUAGUGGUCGACCGGUCUGAUGAGUCUGGGCGGAGACGAAACAGC [GGGCGG] | 0.372 ± 0.034 | 1.9325 ± 0.00079 | 1.577 ± 0.0083 | 0.586 ± 0.017
GCUGUCACCGGUGUAUUACCCUAGUGGUCGACCGGUCUGAUGAGUCUUGGCGAAGACGAAACAGC [UGGCGA] | 0.345 ± 0.039 | 1.94 ± 0.031 | 1.65 ± 0.034 | 0.579 ± 0.11
GCUGUCACCGGUGUAUUACCCUAGUGGUCGACCGGUCUGAUGAGUCUAGGCGGAGACGAAACAGC [AGGCGG] | 0.194 ± 0.017 | 1.841 ± 0.0031 | 1.354 ± 0.01 | 0.536 ± 0.039
GCUGUCACCGGUGUAUUACCCUAGUGGUCGACCGGUCUGAUGAGUCUAGGAUGAGACGAAACAGC [AGGAUG] | 0.132 ± 0.024 | 1.79 ± 0.042 | 1.25 ± 0.045 | 0.526 ± 0.06
GCUGUCACCGGUGUAUUACCCUAGUGGUCGACCGGUCUGAUGAGUCUAGGAUAAGACGAAACAGC [AGGAUA] | -0.536 ± 0.015 | 1.9 ± 0.027 | 1.677 ± 0.0074 | -0.0798 ± 0.042
GCUGUCACCGGUGUAUUACCCUAGUGGUCGACCGGUCUGAUGAGUCUUGGCAGAGACGAAACAGC [UGGCAG] | 0.155 ± 0.013 | 1.91 ± 0.045 | 1.69 ± 0.045 | 0.563 ± 0.052
GCUGUCACCGGUGUAUUACCCUAGUGGUCGACCGGUCUGAUGAGUCUUGGCAUAGACGAAACAGC [UGGCAU] | 0.353 ± 0.011 | 1.95 ± 0.06 | 1.755 ± 0.014 | 0.465 ± 0.046
GCUGUCACCGGUGUAUUACCCUAGUGGUCGACCGGUCUGAUGAGUCUCGGAUUAGACGAAACAGC [CGGAUU] | -0.13 ± 0.0099 | 1.94 ± 0.045 | 1.744 ± 0.0072 | 0.244 ± 0.014
GCUGUCACCGGUGUAUUACCCUAGUGGUCGACCGGUCUGAUGAGUCUAGGCAGAGACGAAACAGC [AGGCAG] | 0.337 ± 0.023 | 1.82 ± 0.037 | 1.45 ± 0.0028 | 0.534 ± 0.015
GCUGUCACCGGUGUAUUACCCUAGUGGUCGACCGGUCUGAUGAGUCUAGGCAUAGACGAAACAGC [AGGCAU] | -0.0543 ± 0.062 | 1.92 ± 0.067 | 1.8 ± 0.047 | 0.027 ± 0.034
GCUGUCACCGGUGUAUUACCCUAGUGGUCGACCGGUCUGAUGAGUCUUGGAUGAGACGAAACAGC [UGGAUG] | 0.4451 ± 0.0015 | 1.92 ± 0.025 | 1.659 ± 0.0063 | 0.341 ± 0.018
GCUGUCACCGGUGUAUUACCCUAGUGGUCGACCGGUCUGAUGAGUCUGGGCCGAGACGAAACAGC [GGGCCG] | -0.0164 ± 0.068 | 1.98 ± 0.05 | 1.923 ± 0.0046 | 0.175 ± 0.031
GCUGUCACCGGUGUAUUACCCUAGUGGUCGACCGGUCUGAUGAGUCUGGGCCAAGACGAAACAGC [GGGCCA] | 0.693 ± 0.015 | 1.9809 ± 0.00094 | 1.99 ± 0.032 | 0.808 ± 0.082
GCUGUCACCGGUGUAUUACCCUAGUGGUCGACCGGUCUGAUGAGUCUGGGCAAAGACGAAACAGC [GGGCAA] | 0.0453 ± 0.045 | 1.963 ± 0.0095 | 1.783 ± 0.013 | 0.266 ± 0.015
GCUGUCACCGGUGUAUUACCCUAGUGGUCGACCGGUCUGAUGAGUCUGGGCAGAGACGAAACAGC [GGGCAG] | 0.0036 ± 0.061 | 1.881 ± 0.013 | 1.5894 ± 0.0015 | 0.434 ± 0.012
GCUGUCACCGGUGUAUUACCCUAGUGGUCGACCGGUCUGAUGAGUCUGGGCAUAGACGAAACAGC [GGGCAU] | -0.045 ± 0.015 | 1.933 ± 0.012 | 1.83 ± 0.075 | 0.103 ± 0.018
GCUGUCACCGGUGUAUUACCCUAGUGGUCGACCGGUCUGAUGAGUCUCGGCAUAGACGAAACAGC [CGGCAU] | -0.119 ± 0.0088 | 1.9 ± 0.037 | 1.56 ± 0.1 | 0.0858 ± 0.0049
GCUGUCACCGGUGUAUUACCCUAGUGGUCGACCGGUCUGAUGAGUCUAGGCCGAGACGAAACAGC [AGGCCG] | 0.147 ± 0.0087 | 1.89 ± 0.018 | 1.67 ± 0.054 | 0.366 ± 0.045
GCUGUCACCGGUGUAUUACCCUAGUGGUCGACCGGUCUGAUGAGUCUAGGCCUAGACGAAACAGC [AGGCCU] | 0.421 ± 0.032 | 1.94 ± 0.022 | 1.97 ± 0.069 | 0.554 ± 0.071
GCUGUCACCGGUGUAUUACCCUAGUGGUCGACCGGUCUGAUGAGUCUAGGCCAAGACGAAACAGC [AGGCCA] | 0.668 ± 0.014 | 1.96 ± 0.016 | 1.86 ± 0.023 | 0.607 ± 0.064
GCUGUCACCGGUGUAUUACCCUAGUGGUCGACCGGUCUGAUGAGUCUGGGAUGAGACGAAACAGC [GGGAUG] | 0.0328 ± 0.0034 | 1.79 ± 0.043 | 1.323 ± 0.0058 | 0.564 ± 0.02
